# Assay results taken from IntAct's records for PubMed 31696227.
# B1: Transcription factor ATOH7 (Homo sapiens), Q8N100 (parent)
# chain: MKSCKPSGPPAGARVAPPCAGGTECAGTCAGAGRLESAARRRLAANARERRRMQGLNTAFDRLRRVVPQWGQDKKLSKYETLQMALSYIMALTRILAEAERFGSERDWVGLHCEHFGRDHYLPFPGAKLPGESELYSQRLFGFQPEPFQMAT
# partner: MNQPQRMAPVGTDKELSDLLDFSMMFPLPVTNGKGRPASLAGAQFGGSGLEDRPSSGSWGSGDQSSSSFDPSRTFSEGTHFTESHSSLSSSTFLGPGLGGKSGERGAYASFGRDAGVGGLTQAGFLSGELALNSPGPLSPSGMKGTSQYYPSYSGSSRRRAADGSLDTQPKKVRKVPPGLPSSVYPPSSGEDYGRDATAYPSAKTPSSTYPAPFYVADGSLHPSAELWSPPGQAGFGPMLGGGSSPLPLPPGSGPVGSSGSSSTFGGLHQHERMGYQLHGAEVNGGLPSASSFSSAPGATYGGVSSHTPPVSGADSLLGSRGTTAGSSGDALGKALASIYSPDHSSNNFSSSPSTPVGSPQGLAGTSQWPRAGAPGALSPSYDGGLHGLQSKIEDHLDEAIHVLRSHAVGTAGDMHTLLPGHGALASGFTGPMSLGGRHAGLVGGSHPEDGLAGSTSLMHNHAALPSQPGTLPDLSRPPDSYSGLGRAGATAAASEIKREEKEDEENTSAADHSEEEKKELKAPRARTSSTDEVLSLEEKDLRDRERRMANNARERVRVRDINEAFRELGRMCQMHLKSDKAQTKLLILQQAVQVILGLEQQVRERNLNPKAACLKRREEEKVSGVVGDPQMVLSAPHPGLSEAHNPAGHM
# Variants of: B1
# Settings: with TCF3, P15923-2
row,Variant,effect of a mutation on the interaction
1,MKSCKPSGPPAGARVAPPCAGGTECAGTCAGAGRLESAARRRLAANARERRRMQGLNTTFDRLRRVVPQWGQDKKLSKYETLQMALSYIMALTRILAEAERFGSERDWVGLHCEHFGRDHYLPFPGAKLPGESELYSQRLFGFQPEPFQMAT [A59T],disrupting interaction strength
2,MKSCKPSGPPAGARVAPPCAGGTECAGTCAGAGRLESAARRRLAANARERRRMQGLNTGFDRLRRVVPQWGQDKKLSKYETLQMALSYIMALTRILAEAERFGSERDWVGLHCEHFGRDHYLPFPGAKLPGESELYSQRLFGFQPEPFQMAT [A59G],decreasing interaction strength
3,MKSCKPSGPPAGARVAPPCAGGTECAGTCAGAGRLESAARRRLAANARERRRMQGLNTVFDRLRRVVPQWGQDKKLSKYETLQMALSYIMALTRILAEAERFGSERDWVGLHCEHFGRDHYLPFPGAKLPGESELYSQRLFGFQPEPFQMAT [A59V],disrupting interaction strength
4,MKSCKPSGPPAGARVAPPCAGGTECAGTCAGAGRLESAARRRLAAHARERRRMQGLNTAFDRLRRVVPQWGQDKKLSKYETLQMALSYIMALTRILAEAERFGSERDWVGLHCEHFGRDHYLPFPGAKLPGESELYSQRLFGFQPEPFQMAT [N46H],disrupting interaction strength
